{
  "source": "patent US20080118504A1",
  "about": "(University of California, published 2008)",
  "binders": {"B1": {"name": "soluble MD-2 wild type (human MD-2 with C-terminal His-tag, from insect cells) (other)", "chain": "EAQKQYWVCNSSDASISYTYCDKMQYPISINVNPCIELKGSKGLLHIFYIPRRDLKQLYFNLYITVNTMNLPKRKEVICRGSDDDYSFCRALKGETVNTTISFSFKGIKFSKGKYKCVVEAISGSPEEMLFCLEFVILHQPNSN", "notes": "Expressed with the gp64 signal peptide in place of its own; The purified protein is a mixture of monomer and disulfide-linked oligomers; also called sMD-2; sMD-2 WT; not shown: C-terminal V5/His tag of the vector (pBlueBac4.5/V5-His or pBac11)"}, "B2": {"name": "soluble MD-2 alanine replacement mutant 127-131 (other)", "chain": "B1 chain with S111A, K112A, G113A, K114A, Y115A", "notes": "Expressed as a monomer; also called mutant SKGKY; not shown: C-terminal V5/His tag of the vector"}},
  "key": {"[1]": {"molecular_target": "T1, TLR4 containing N-terminal HA-tag, stably transfected in CHO (EL1) cells (UniProt O00206 24-839, limits assumed)", "T1 construct": "whole, on cells; also called membrane TLR4; TLR4 transfected EL-1 cells; not shown: N-terminal HA-tag", "T1 sequence (O00206 24-839 limits assumed)": "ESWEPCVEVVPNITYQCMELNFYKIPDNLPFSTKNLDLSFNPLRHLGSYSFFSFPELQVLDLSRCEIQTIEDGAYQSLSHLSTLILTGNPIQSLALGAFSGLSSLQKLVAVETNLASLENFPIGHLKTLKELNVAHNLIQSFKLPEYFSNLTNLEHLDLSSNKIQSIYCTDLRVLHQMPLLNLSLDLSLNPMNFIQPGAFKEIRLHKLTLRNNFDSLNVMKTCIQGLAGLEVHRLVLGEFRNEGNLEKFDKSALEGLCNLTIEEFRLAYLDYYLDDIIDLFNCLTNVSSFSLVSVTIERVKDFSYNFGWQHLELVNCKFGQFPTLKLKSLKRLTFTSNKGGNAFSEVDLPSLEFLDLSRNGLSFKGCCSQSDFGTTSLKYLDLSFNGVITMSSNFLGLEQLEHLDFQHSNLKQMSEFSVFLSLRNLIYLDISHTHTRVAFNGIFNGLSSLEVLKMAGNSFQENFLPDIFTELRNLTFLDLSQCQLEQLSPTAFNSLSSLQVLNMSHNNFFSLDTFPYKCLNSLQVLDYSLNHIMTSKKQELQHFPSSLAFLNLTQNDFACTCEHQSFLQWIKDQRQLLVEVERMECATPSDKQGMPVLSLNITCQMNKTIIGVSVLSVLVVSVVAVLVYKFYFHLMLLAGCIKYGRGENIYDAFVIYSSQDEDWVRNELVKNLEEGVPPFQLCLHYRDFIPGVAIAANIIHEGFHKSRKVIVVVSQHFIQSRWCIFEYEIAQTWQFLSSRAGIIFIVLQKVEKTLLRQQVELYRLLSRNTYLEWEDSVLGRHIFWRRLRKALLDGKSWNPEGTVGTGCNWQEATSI", "assay": "FACS with anti-His and anti-HA on TLR4 transfected EL-1 (CHO) cells, receptor numbers from a microbead standard curve", "description": "(§1) LPS activation increased with increasing MD-2 levels on the cell surface. TLR4 transfected EL-1 cells (a CHO cell line stably transfected with NF-κB/CD25 reporter plasmid) were incubated with various amount of soluble MD-2 for 20 min. The amount of soluble MD-2 that bound to TLR4 transfected cells as well as the TLR4 expression level were assayed by FACS analysis using antibody to His-tag and HA-tag, respectively. The MD-2 and TLR4 receptor numbers were calculated by converting mean channel number (MCN) of fluorescence intensity using the standard curve generated with Simply Cellular Microbeads. The cells were also activated with 100 ng/ml LPS and NF-κB activation assayed by FACS analysis of surface CD25 expression.\n(§2) Various concentrations of sMD-2, plotted on the x-axis, was added to CHO (EL1) cells stably transfected with TLR4. The amount of TLR4 and MD-2 on the cell surface was analyzed by FACS using anti-HA tag and anti-His tag antibody, respectively. The receptor numbers plotted on the left Y-axis were calculated from mean channel number (MCN) and the standard curves generated by simply cellular microbeads. The cells were also activated with 100 ng/ml of LPS."}, "[2]": {"molecular_target": "T1, TLR4 containing N-terminal HA-tag, …", "assay": "FACS with anti-His and anti-HA on TLR4 transfected EL-1 (CHO) cells, receptor numbers from a microbead standard curve; 0.5 nM sMD-2, 20 min", "description": "as §1, §2"}, "[3]": {"molecular_target": "T1, TLR4 containing N-terminal HA-tag, …", "assay": "FACS with anti-His tag of purified sMD-2 on TLR4 transfected EL1 (CHO) cells", "description": "To determine sMD-2 mutants binding to TLR4, the purified proteins were added to TLR4 transfected EL1 cells, washed off excess protein after 15 min or overnight incubation, stained with anti-His tag antibody and analyzed by FACS. FIG. 10 illustrates data showing LPS activation of sMD-2. TLR4 transfected CHO cells harboring CD25 reporter plasmids were activated with 100 ng/ml LPS in the absence and presence of 5 ug/ml of sMD-2 and the NF-κB activation was measured by FACS analysis of CD25 surface expression (MCN) using anti-CD25-PE. […] None of mutants with mostly oligomers remained in association to TLR4 cells after 16 hr. The unglycosylated MD-2 bound normally to TLR4 cells after 15 min but the binding was reduced after 16 hr."}},
  "note": "Changes are numbered by the printed parent chain.",
  "data": [
    {"binder": "B1", "values": [
      {"measurement": "calculated ratio of MD-2 per TLR4 at maximal LPS activation", "setting": "[1]", "result": "~5", "unit": "MD-2 per TLR4"},
      {"measurement": "calculated ratio of surface MD-2 per TLR4", "setting": "[2]", "result": 0.5, "unit": "MD-2 per TLR4"}
    ]},
    {"binder": "B2", "values": [
      {"measurement": "binding result", "setting": "[3]", "result": "no binding (tested: 1 or 5 µg/ml)"}
    ]}
  ]
}
